Laboratory results as given in patent US20220275103A1 (CENTRICSBIO, published 2022).

Legend:
mouse CD300c antigen = target: T1, mouse CD300c antigen (mouse); test: cell-based or functional assay
T1 sequence (A2A7V7 whole entry, looked up): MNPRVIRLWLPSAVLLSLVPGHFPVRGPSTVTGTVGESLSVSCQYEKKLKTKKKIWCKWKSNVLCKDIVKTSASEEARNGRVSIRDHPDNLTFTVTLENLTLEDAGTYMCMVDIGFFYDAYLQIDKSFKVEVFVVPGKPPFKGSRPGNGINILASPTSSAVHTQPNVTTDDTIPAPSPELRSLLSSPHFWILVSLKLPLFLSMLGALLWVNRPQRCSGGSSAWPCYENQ

[1] = target: T2, CD300a antigen (12449-H08H, Sino Biological) (UniProt Q9UGN4 18-180); test: binding ELISA, antigens coated at 8 ug/mL, HRP anti-Fc IgG, O.D 450 nm
T2 sequence (looked up): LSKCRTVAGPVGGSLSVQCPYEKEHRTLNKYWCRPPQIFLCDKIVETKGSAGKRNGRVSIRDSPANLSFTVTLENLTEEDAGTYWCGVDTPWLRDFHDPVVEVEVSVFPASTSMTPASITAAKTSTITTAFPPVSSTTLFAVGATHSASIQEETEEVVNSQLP
Experimental: (§1) Binding ELISA was performed to identify that the anti-CD300c monoclonal antibody CL7 specifically binds only to CD300c without binding to other B7 family proteins. More specifically, each of CD300c antigen, CD300a antigen, or seven B7 family protein antigens (PD-L1 [B7-H1] (Sino Biological), ICOS Ligand[B7-H2] (Sino Biological), CD276[B7-H3] (Sino Biological), B7-H4 (Sino Biological), CD80[B7-1] (Sino Biological), CD86[B7-2] (Sino Biological), CD273[PD-L2] (Sino Biological)) in a coating buffer (0.1 M sodium carbonate, pH 9.0) was coated on an ELISA plate at a concentration of 8 μg/mL per well, and then incubation was performed at 2° C. to 8° C. overnight so that the antigen bound to the plate. The unbound antigen was removed by performing washing with PBST three times, and then […] of blocking buffer (5% skim milk in PBST) was added to each well. Subsequently, blocking was performed at room temperature for 1 hour, and then washing was performed again with PBST. Thereafter, CL7 was diluted in quadruplicate with PBS, and subjected to reaction with the antigen at room temperature for 1 hour for antigen binding. 1 hour later, washing with PBST was performed three times. Then, a secondary antibody (HRP-conjugated anti-Fc IgG) diluted to 4 μg/mL in blocking buffer was added thereto, and reaction was allowed to proceed at room temperature for 1 hour. Subsequently, the unbound antibody for detection was removed using PBST, and then a TMB solution was added thereto. Reaction was allowed to proceed for 10 minutes for development. Then, 2 N sulfuric acid solution was added to terminate the development, and the absorbance was measured at 450 nm to identify the antibody that specifically binds to the CD300c antigen.

[2] = target: PD-L1 [B7-H1] (Sino Biological) (UniProt Q9NZQ7 19-239, limits assumed); test: as above
Experimental: as §1

[3] = target: T3, ICOS Ligand[B7-H2] (Sino Biological) (UniProt O75144 19-258, limits assumed); test: as above
T3 sequence (looked up): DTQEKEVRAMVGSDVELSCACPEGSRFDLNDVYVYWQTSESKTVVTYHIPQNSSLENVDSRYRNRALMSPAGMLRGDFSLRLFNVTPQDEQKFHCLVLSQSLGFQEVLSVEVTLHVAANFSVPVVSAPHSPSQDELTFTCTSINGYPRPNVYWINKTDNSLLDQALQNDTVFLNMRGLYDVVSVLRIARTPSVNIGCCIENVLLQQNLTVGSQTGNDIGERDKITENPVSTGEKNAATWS
Experimental: as §1

[4] = target: T4, CD276[B7-H3] (Sino Biological) (UniProt Q5ZPR3 29-461, limits assumed); test: as above
T4 sequence (looked up): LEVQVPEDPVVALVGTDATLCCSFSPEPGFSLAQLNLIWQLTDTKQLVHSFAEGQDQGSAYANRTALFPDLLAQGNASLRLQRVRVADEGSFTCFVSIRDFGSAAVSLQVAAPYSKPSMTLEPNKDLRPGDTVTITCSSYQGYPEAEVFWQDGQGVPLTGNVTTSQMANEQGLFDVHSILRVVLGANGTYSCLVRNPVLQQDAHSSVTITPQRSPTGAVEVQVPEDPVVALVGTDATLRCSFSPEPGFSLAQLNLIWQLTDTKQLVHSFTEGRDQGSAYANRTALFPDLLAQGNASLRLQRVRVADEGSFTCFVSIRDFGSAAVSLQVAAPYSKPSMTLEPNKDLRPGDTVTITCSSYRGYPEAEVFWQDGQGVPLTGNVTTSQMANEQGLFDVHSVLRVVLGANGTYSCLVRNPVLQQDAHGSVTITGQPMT
Experimental: as §1

B7-H4 (Sino Biological) = target: T5, B7-H4 (Sino Biological) (UniProt Q7Z7D3 25-258, limits assumed); test: as above
T5 sequence (looked up): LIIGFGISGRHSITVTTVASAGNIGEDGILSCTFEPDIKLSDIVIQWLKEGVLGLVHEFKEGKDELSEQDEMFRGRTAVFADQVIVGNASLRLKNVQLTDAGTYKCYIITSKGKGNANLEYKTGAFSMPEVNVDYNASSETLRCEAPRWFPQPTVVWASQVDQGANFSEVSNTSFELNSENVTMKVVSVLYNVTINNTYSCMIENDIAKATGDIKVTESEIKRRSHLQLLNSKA
Experimental: as §1

[5] = target: T6, CD80[B7-1] (Sino Biological) (UniProt P33681 35-242, limits assumed); test: as above
T6 sequence (looked up): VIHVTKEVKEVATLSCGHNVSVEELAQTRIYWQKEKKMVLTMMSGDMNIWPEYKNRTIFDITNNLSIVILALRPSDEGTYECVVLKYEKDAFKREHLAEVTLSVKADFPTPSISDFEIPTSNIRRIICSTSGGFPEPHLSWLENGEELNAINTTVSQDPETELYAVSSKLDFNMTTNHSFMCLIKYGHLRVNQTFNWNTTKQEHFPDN
Experimental: as §1

[6] = target: T7, CD86[B7-2] (Sino Biological) (UniProt P42081 24-247, limits assumed); test: as above
T7 sequence (looked up): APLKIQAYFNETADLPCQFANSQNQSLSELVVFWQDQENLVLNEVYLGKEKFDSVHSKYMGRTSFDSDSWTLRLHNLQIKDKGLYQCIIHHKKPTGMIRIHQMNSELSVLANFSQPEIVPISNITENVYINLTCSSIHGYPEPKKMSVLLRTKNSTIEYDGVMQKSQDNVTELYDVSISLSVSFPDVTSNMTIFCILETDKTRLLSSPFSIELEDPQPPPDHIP
Experimental: as §1

[7] = target: T8, CD273[PD-L2] (Sino Biological) (UniProt Q9BQ51 20-219, limits assumed); test: as above
T8 sequence (looked up): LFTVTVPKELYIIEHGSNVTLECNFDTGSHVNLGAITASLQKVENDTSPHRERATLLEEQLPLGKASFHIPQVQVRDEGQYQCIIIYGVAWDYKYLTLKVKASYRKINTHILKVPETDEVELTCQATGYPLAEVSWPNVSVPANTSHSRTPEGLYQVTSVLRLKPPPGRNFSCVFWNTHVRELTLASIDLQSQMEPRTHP
Experimental: as §1

PD-L1 [B7-H1] (Sino Biological), sequence (Q9NZQ7 19-239 limits assumed): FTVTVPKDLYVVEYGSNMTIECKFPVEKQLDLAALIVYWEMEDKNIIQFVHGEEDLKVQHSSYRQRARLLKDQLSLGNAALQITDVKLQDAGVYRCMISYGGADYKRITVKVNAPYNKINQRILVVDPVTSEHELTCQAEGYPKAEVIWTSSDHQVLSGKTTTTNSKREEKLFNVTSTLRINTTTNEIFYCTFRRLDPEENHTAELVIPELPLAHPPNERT

Binder	cancer cell proliferation inhibitory effect on CT26 mouse colorectal cancer cells (CCK-8, 10 ug/mL antibody, 5 days), higher than the control group (mouse CD300c antigen)	binding result [1]	binding result [2]	binding result [3]	binding result [4]	binding result (B7-H4 (Sino Biological))	binding result [5]	binding result [6]	binding result [7]
CL7 (antibody, V domains shown, VH3VL1 phage library clone; also called anti-CD300c monoclonal antibody CL7; CB301 antibody CL7) VH: EVQLLESGGGLVQPGGSLRLSCAASGFTFSRYAMSWVRQAPGKGLEWVSAISGSGGSTYYADSVKGRFTISRDNSKNTLYLQMNSLRAEDTAVYYCARSSQGIFDIWGQGTLVTVSS VL: QSVLTQPPSASGTPGQRVTISCSGNNIGTRRVHWYQQLPDTAPKLLIYSKNNRPSGVPDRFSGSKSGTSASLAISGLRSEDEADYYCAAWDDSLSGPVFGGGTKLTVL	66%	no binding (tested: log10 about 0.4 (about 2.5 ug/ml))	no binding (tested: log10 about 0.4 (about 2.5 ug/ml))	no binding (tested: log10 about 0.4 (about 2.5 ug/ml))	no binding (tested: log10 about 0.4 (about 2.5 ug/ml))	no binding (tested: log10 about 0.4 (about 2.5 ug/ml))	no binding (tested: log10 about 0.4 (about 2.5 ug/ml))	no binding (tested: log10 about 0.4 (about 2.5 ug/ml))	no binding (tested: log10 about 0.4 (about 2.5 ug/ml))
CL10 (antibody, V domains shown) VH: EVQLLESGGGLVQPGGSLRLSCAASGFTFSSYGMHWVRQAPGKGLEWVSAISGSGGSTYYADSVKGRFTISRDNSKNTLYLQMNSLRAEDTAVYYCASGYGLMDVWGQGTLVTVSS VL: QSVLTQPPSASGTPGQRVTISCTRSSGIIASNYVQWYQQLPGTAPKLLIYRNNQRPSGVPDRFSGSKSGTSASLAISGLRSEDEADYYCSSYAGNNNLVFGGGTKLTVL	15%								
SL18 (antibody, V domains shown) VH: RVQLLESGGGLVQPGGSLRLSCAASGFTFSDYHMHWVRQAPGKGLEWVSTISSSGGYTYYAESVKSRFTISRDNSKNTLYLQMNSLRAEDTAVYYCARSIRLPLDYWGQGTLVTVSS VL: QSVLTQPPSASGTPGQRVTISCSGNNIGSKGVHWYQQLPGTAPKLLIYEDSKRPSGVRDRFSGSKSGTSASLAISGLRSEDEADYYCQSYDSTKGVVFGGGTKLTVL	38%								
